Test results taken from patent publication US6703489 (YALE UNIVERSITY, dated 2004).

B2: Drosophila Serrate, full-length (expression construct Ser-mtn), expressed on Drosophila S2 cells (ligand)
chain: GNFELEILEISNTNSHLLNGYCCGMPAELRATKTIGCSPCTTAFRLCLKEYQTTEQGASISTGCSFGNATTKILGGSSFVLSDPGVGAIVLPFTFRWTKSFTLILQALDMYNTSYPDAERLIEETSYSGVILPSPEWKTLDHIGRNARITYRVRVQCAVTYYNTTCTTFCRPRDDQFGHYACGSEGQKLCLNGWQGVNCEEAICKAGCDPVHGKCDRPGECECRPGWRGPLCNECMVYPGCKHGSCNGSAWKCVCDTNWGGILCDQDLNFCGTHEPCKHGGTCENTAPDKYRCTCAEGLSGEQCEIVEHPCATRPCRNGGTCTLKTSNRTQAQVYRTSHGRSNMGRPVRRSSSMRSLDHLRPEGQALNGSSSSGLVSLGSLQLQQQLAPDFTCDCAAGWTGPTCEINIDECAGGPCEHGGTCIDLIGGFRCECPPEWHGDVCQVDVNECEAPHSAGIAANALLTTTATAIIGSNLSSTALLAALTSAVASTSLAIGPCINAKECRNQPGSFACICKEGWGGVTCAENLDDCVGQCRNGATCIDLVNDYRCACASGFTGRDCETDIDECATSPCRNGGECVDMVGKFNCICPLGYSGSLCEEAKENCTPSPCLEGHCLNTPEGYYCHCPPDRAGKHCEQLRPLCSQPPCNEGCFANVSLATSATTTTTTTTTATTTRKMAKPSGLPCSGHGSCEMSDVGTFCKCHVGHTGTFCEHNLNECSPNPCRNGGICLDGDGDFTCECMSGWTGKRCSERATGCYAGQCQNGGTCMPGAPDKALQPHCRCAPGWTGLFCAEAIDQCRGQPCHNGGTCESGAGWFRCVCAQGFSGPDCRINVNECSPQPCQGGATCIDGIGGYSCICPPGRHGLRCEILLSDPKSACQNASNTISPYTALNRSQNWLDIALTGRTEDDENCNACVCENGTSRCTNLWCGLPNCYKVDPLSKSSNLSGVCKQHEVCVPALSETCLSSPCNVRGDCRALEPSRRVAPPRLPAKSSCWPNQAVVNENCARLTILLALERVGKGASVEGLCSLVRVLLAAQLIKKPASTFGQDPGMLMVLCDLKTGTNDTVELTVSSSKLNDPQLPVAVGLLGELLSSRQLNGIQRRKELELQHAKLAALTSIVEVKLETARVADGSGHSLLIGVLCGVFIVLVGFSVFISLYWKQRLAYRTSSGMNLTPSLDALRHEEEKSNNLQNEENLRRYTNPLKGSTSSLRAATGMELSLNPAPELAASAASSSALHRSQPLFPPCDFERELDSSTGLKQAHKRSSQILLHKTQNSDMRKNTVGSLDSPRKDFGKRSINCKSMPPSSGDEGSDVLATTVMV
notes: also called full-length Serrate

Key:
[1] = biological target: B2; test: cell aggregation assay, S2 cells
[2] = biological target: the molecule itself; test: cell aggregation assay, S2 cells

B1: Drosophila Delta, expressed on cells (ligand, Drosophila melanogaster, UniProt P10041 19-833, looked up)
chain: QVHSSGSFELRLKYFSNDHGRDNEGRCCSGESDGATGKCLGSCKTRFRVCLKHYQATIDTTSQCTYGDVITPILGENSVNLTDAQRFQNKGFTNPIQFPFSFSWPGTFSLIVEAWHDTNNSGNARTNKLLIQRLLVQQVLEVSSEWKTNKSESQYTSLEYDFRVTCDLNYYGSGCAKFCRPRDDSFGHSTCSETGEIICLTGWQGDYCHIPKCAKGCEHGHCDKPNQCVCQLGWKGALCNECVLEPNCIHGTCNKPWTCICNEGWGGLYCNQDLNYCTNHRPCKNGGTCFNTGEGLYTCKCAPGYSGDDCENEIYSCDADVNPCQNGGTCIDEPHTKTGYKCHCANGWSGKMCEEKVLTCSDKPCHQGICRNVRPGLGSKGQGYQCECPIGYSGPNCDLQLDNCSPNPCINGGSCQPSGKCICPAGFSGTRCETNIDDCLGHQCENGGTCIDMVNQYRCQCVPGFHGTHCSSKVDLCLIRPCANGGTCLNLNNDYQCTCRAGFTGKDCSVDIDECSSGPCHNGGTCMNRVNSFECVCANGFRGKQCDEESYDSVTFDAHQYGATTQARADGLTNAQVVLIAVFSVAMPLVAVIAACVVFCMKRKRKRAQEKDDAEARKQNEQNAVATMHHNGSGVGVALASASLGGKTGSNSGLTFDGGNPNIIKNTWDKSVNNICASAAAAAAAAAAADECLMYGGYVASVADNNNANSDFCVAPLQRAKSQKQLNTDPTLMHRGSPAGSSAKGASGGGPGAAEGKRISVLGEGSYCSQRWPSLAAAGVAGACSSQLMAAASVAGSGAGTAQQQRSVVCGTPHM
notes: whole, on cells; That entry appears to be only part of Delta, so it was not used for the whole protein on cells; also called Delta expressing cells
- binding result [1]: no binding

Binder: B2
- binding result [2]: no binding
